# Patent publication US20210040232A1
# Legend:
# [1] = molecular target: human CTLA-4 (amino acids M1-N223) on stably transfected VI-fibroblast cells (human) (UniProt P16410); test: ECL cell binding, VI-fibroblast/hCTLA-4 cells
# [2] = molecular target: mf CTLA-4 extracellular domain (aa 1-161) fused to the trans-membrane and cytoplasmic domain of hCD300a (aa 181-299), on Jurkat/NFAT-Luc cells (Macaca fascicularis; human) (UniProt G7PL88); test: ECL cell binding, Jurkat/NFAT-Luc/mfCTLA-4-hCD300a cells
# [3] = molecular target: mf CTLA-4 extracellular domain (aa 1-161) fused to the trans-membrane and cytoplasmic domain of hCD300a (aa 181-299), on Jurkat/NFAT-Luc cells (Macaca fascicularis; human) (UniProt G7PL88); test: cell-based or functional assay
# mf CTLA-4 extracellular domain (aa 1-161) fused to the trans-membrane and cytoplasmic domain of hCD300a (aa 181-299), on Jurkat/NFAT-Luc cells (Macaca fascicularis; human), sequence (Q9UGN4 other isoform, or with tags, fused parts or gaps, form in doubt): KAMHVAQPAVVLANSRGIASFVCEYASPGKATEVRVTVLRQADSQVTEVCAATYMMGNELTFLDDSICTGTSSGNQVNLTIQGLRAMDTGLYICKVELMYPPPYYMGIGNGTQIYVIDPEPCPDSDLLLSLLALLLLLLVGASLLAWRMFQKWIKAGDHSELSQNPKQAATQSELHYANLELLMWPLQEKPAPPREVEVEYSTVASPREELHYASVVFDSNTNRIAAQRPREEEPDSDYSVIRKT
# human CTLA-4 (amino acids M1-N223) on stably transfected VI-fibroblast cells (human), sequence (P16410 36-223 limits assumed): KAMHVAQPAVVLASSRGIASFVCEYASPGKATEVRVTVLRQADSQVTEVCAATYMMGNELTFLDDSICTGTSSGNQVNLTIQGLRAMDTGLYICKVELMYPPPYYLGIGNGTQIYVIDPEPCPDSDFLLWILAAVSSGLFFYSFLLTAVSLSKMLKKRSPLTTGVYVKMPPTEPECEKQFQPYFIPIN
ratio of RLU signal to parental VI-fibroblast at 0.4 nM Ab [1],EC50 [2],"EC50, T-cell/APC IL-2 release assay, APC HEK293/hCD20/hCD86 [3]","EC50, T-cell/APC NFAT-luciferase assay, +Fc Block [3]","EC50, T-cell/APC NFAT-luciferase assay, -Fc Block [3]","Fold induction of IL-2 at 100 nM, APC HEK293/hCD20/hCD86 [3]",Binder
1,–,–,–,–,–,"H1H19264P (antibody, human IgG1, V domains shown) VH: QVQLVQSGAEVKKPGASVKVSCKASDYTFTSYGISWVRQAPGQGLEWMGWISVYNGNINYAQKFKGRVTMTTDTSTSTAYMELRSLRSDDMAVYYCARVTQFGMDVWGQGTTVTVSS VL: DIQMTQSPSSLSASVGDRVTITCRASQSISSNLNWYQQNPGKAPKLLIYTTSSLQGGVPSRFSGSGSGTDFTLTISSLQPEDFATYYCQQSFRTPFTFGPGTKVDIK"
–,0.11 nM,40.9 nM,1.77 nM,1.28 nM,4.4 fold,"H1H19303P (antibody, human IgG1, kappa, V domains shown) VH: EVQLVESGGGLVQPGGSLRLSCAASGFTFSNYEMSWVRQAPGKGLEWVSSIRTSGTTKYYADSMKGRFTISRDNAKNSLYLQMNSLRAEDTAVYYCAGGGTFLHYWGQGTLVTVSS VL: DIQMTQSPSSVSASVGDRVTITCRASQGIASYLAWYQQKPGKAPKLLIYAASSLQTGVPSRFSGSGYGTDFTLTISSLQPEDFATYYCQQAKSFPMYTFGQGTKLEIKR"
–,0.22 nM,11.4 nM,1.83 nM,3.05 nM,6.5 fold,"H1H19273P (antibody, human IgG1, V domains shown) VH: QITLKESGPTLVKPTQTLTLTCTFSGFSLSTSGVGVGWIRQSPGRALEWLALIYWNDHERYSPSLKSRLTITKDTSKNLVVLAMANMDPVDTATYFCAHRNIEYRRSYFFDYWGQGTLVTVSS VL: DIQMTQSPSSVSASVRDRVTVTCRASQDINNWLAWYQQKPGKAPKLLIYAASSLQSGVPSRFSGSGSGTDFTLTISSLQPEDFATYYCQQANTFPFTFGPGTKVDIK"
–,0.14 nM,21.9 nM,1.84 nM,1.34 nM,6.1 fold,"H1H19313P (antibody, human IgG1, V domains shown) VH: QITLKESGPTLVKPTQTLTLTCTFSGFSLSTSGVGVGWIRQPPGVALEWLALIYWNDDKRFSPSLKSRLTITKDTSKNQVVLTMTNMDPVDTATYYCAHRRLGLYYFDYWGQGTLVTVSS VL: DIQLTQSPSFLSASVGDRVTITCWASQGISSYLAWYQQKPGKAPKLLIYAASTLQSGVPSRFSGSGSGTEFTLTISSLQPEDFATYYCQQVHIYPFTFGPGTKVDIK"
